Assay results reported in patent US20170368150A1, “METHODS OF TREATING PULMONARY SARCOIDOSIS” (GOTHAM BIOPHARMACEUTICALS, INC., priority 2014, published 2017).

Key:
bronchiectasis patients = details: large clinical trial; cited from earlier work
[1] = system: patient with chronic pulmonary sarcoidosis; test: n=1 long-term clinical treatment of a chronic pulmonary sarcoidosis patient with PULMOZYME; assay type: in vivo
Text: At times, the patient was bedridden, dyspneic, and could not climb stairs or walk more than 10 feet. Steroids had been prescribed by pulmonary specialists; however the side effects of steroid therapy (diabetes, weight gain, memory loss, mental confusion, crippling joint pain) were intolerable. The patient's pulmonary sarcoidosis was deemed ultimately refractory to steroid therapy, which was discontinued, leaving essentially no therapeutic options for this patient.
PULMOZYME® was prescribed to the patient by a licensed medical practitioner to initiate treatment.
The extended clinical timeline described above allowed for a distinction between remission and stabilization of the disease to be made. […] This was done on an annual basis for the patient described above for the typical “survival window” (8-14 years for patients with progressive, chronic disease).
The clinical timeline for treatment of the patient described above with PULMOZYME® is represented diagrammatically in FIG. 3 during pretreatment and for the entire treatment interval.

[2] = more than 10 years of treatment

B1: dornase alfa (protein, listed as Homo sapiens)
chain: LKIAAFNIQTFGETKMSNATLVSYIVQILSRYDIALVQEVRDSHLTAVGKLLDNLNQDAPDTYHYVVSEPLGRNSYKERYLFVYRPDQVSAVDSYYYDDGCEPCGNDTFNREPAIVRFFSRFTEVREFAIVPLHAAPGDAVAEIDALYDVYLDVQEKWGLEDVMLMGDFNAGCSYVRPSQWSSIRLWTSPTFQWLIPDSADTTATPTHCAYDRIVVAGMLLRGAVVPDSALPFNFQAAYGLSDQLAQAISDHYPVEVMLK
In the case of B1, the “benefit of treatment in bronchiectasis” value (bronchiectasis patients) is listed as “failed to demonstrate any benefit”, the “safety of treatment in bronchiectasis” value (bronchiectasis patients) is listed as “potentially harmful” and the “pulmonary disease symptoms (dyspnea, inspissated secretions) on discontinuation of therapy” value ([1]; annual 2-week discontinuation, resolved upon resumption (2.5 mg qd 4x weekly)) is listed as “worsened”. For the same molecule, the “arterial O2 saturation (finger pulse oximetry)” value ([1]; at present, on room air) was 98%, the “Arterial oxygenation via pulse oximetry, SaO2” value ([1]; currently measured on room air, low of 70% in pre-treatment interval) was 99% and the “Chest physical therapy with postural drainage” value ([1]; during PULMOZYME therapy) was “none required”. The “General quality of life” value ([1]; during PULMOZYME therapy) was “vastly improved”, the “Rib fractures and abdominal hernias” value ([1]; during PULMOZYME therapy) was “none” and the Granuloma formation/expectoration ([1]; during treatment) was “occasional”. The sarcoid skin involvement ([1]; during treatment) was “unchanged”, the Remission of disease ([1]; judged by annual 14-day discontinuation) was “not evident” and the “Emergency room visits and hospitalizations relating to pulmonary sarcoidosis” value [1, 2] was “none”. The “Pulmonary exacerbations (pneumonia)” value [1, 2] was “not been a single pulmonary exacerbation and none”, the “routine chest x-rays during treatment” value ([1]; scarring not progressed to more severe disease) was “improvement” and the “Blood chemistry, liver and kidney function during treatment” value ([1]; single patient) was “normal”. The “Exercise tolerance during treatment” value ([1]; single patient) was “unlimited”, the “Coughing, wheezing, dyspnea” value ([1]; single patient, continued therapy 3-4 days/week) was “none” and the “Adverse events / side effects relating to PULMOZYME” value ([1]; single patient, long-term treatment (more than 10 years; over 12 years)) was “complete absence of side effects and without side effects or incident and none”.
